Assay: soluble on expression in E. coli; label from the status in PepcDB or PDB records

| Sequence | soluble on expression in E. coli |
| --- | --- |
| MMNTSDNHALGDFLRARRQRLDPATFGFPAGRRRTPGLRREEVAQLASISPTWYTWLEQGRGGAPSREVLERIARGLRLTTPEREHLFILAFGHPPQTRLTVTDDMTPRLQRVLDAFTIPAIIRTASWDVIAWNAPAARVLTDYSQLPLAERNVLRRLFTRPEARCTLEDWQRVGQLIVNAFRADVTRMGATKETDQLIAELSQQSVEFARFWQSHDVAGHGEGYKRINHPEMGPLDLEFTSFAVEGRPDLSLLVFNPATTESQRKIHGLLQGAGSAPEES | soluble |
| QTVQSTSKGSDYIVAVTACTTGIAHTYMAEEALKKKAAEMGVGIKVETNGASGVGNKLTSSDIARAKGVIIAADKAVEMDRFDGKPLVSRPVADGIKKSEDLINIILDNKAQTY | not soluble |
| MKEYKRPDMYDKLLPMERIHIEVFEPFNGEAIEGKYSYVLLCRDYRSSFMWLLPLKSTKFKHLIPVVSSLFLTFARVPIFVTSSTLDKDDLYDICEEIASKYGLRIGLGLKSSARFHTGGILCIQYALNSYKKECLADWGKCLRYGPYRFNRRRNKRTKRKPVQVLLSEVPGHNAKFETKRERVIENTYSRNMFKMAGGKGLIYLEDVNTFALANEADNSCNNNGILHNNNIGNDNFEEEVQKQFDLTEKNYIDEYDDLAHDSSEGEFEPNTLTPEEKPPHNVDEDRIESTGVAAPMQGTEEPEKGDQKESDGASQVDQSVEITRPETSYYQTLESPSTKRQKLDQQGNGDQTRDFGTSMEL | not soluble |
| MSLKQPAVFFDKNVSTIEENNSLLDGQTDVPVLDPHDLLVEVQAVSVNPVDTKLRQTGVASKIKILGYDAFGIVKNTGKDVTRFHAGDRVYYAGTTQRPGSNEKFQAVDERLVGRAPEKLNKSEIAAMPLTSITAYEILVDQLGLRFQNHAADGKNMLVINGAGGVGSVLLQMAAYLGINLSVTAHSSESIEWLKKYSVDKIYDYENIDETLADQKFDYIVFLYDPALYWDIAIKHIKPYGQLVSIVGTNKPLNMGPLKNIAVQFKWEYMFAKSDFNHNILSQGQALDKIAILLDAGILKTTLNKTFDLINAENLRQAYKLVESGRMQGKVVLNGPFDKALKEGHHHHHH | soluble |
| MGGSHHHHHHGMASALKEAMVQAEEAAAEITRKLEKQEKKRLKKEKKRLAALALASSENSSSTPEECEEMSEKPKKKKKQKPQEVPQENGMEDPSISFSKPKKKKSFSKEELMSSDLEETAGSTSIPKRKKSTPKEETVNDPEEAGHRSGSKKKRKFSKEEPVSSGPEEAVGKSSSKKKKKFHKASQED | not soluble |
| MPRVSASPRTPPPPVMDLRMSEDSAFPIDFSALTRAQLENITRVCHGSAGSVFQQAGLFTSAGLPIVNNVRLKLAQRDADAFTTFEELINLFEDFYGRLALIEDTQNNLLLSALSAGDEPGETLQ | not soluble |
| DITGIATGYRDLDHMTTGLHEEELIILAARPAVGKTAFALNIAQNIGTKLDKTVAIFSLEMGAESLVDRMLAAEGLVESHSIRTGQLTDEEWQKYTIAQGNLANASIYIDDTPGIRITEIRSRSRKLAQETGNLGLILIDYLQLITGTGRENRQQEVSEISRQLKILAKELKVPVIALSQLSRGVEQRQDKRPVLSDI | not soluble |
| MGSDKIHHHHHHMRVAIIGMGTAGVSVLRELVKHPKFNQLDIDLYDDKVNMGQGVPFQNDSSELLINMPSKKMSLNLDDETEFWKWYKQQTDFNFDEPAYLPRFVFGHYMKSYLSMFTKKYPNISTNYNKVQEIYTNSNIDETNLTYYICTTNSEQSWQAYDYVFLTCGTFAYHDPYNLKGKKGYIATPYPTYNTLDEVNELDDIAIIGTGLASLDVVRYVAAHHPKLPITMTSRSAHLPSVRGTMIDVTFKYLTKDKLNDIKKHHFGNAPLDTLVSLFLKECAEYDIDFKKLVYRRTGNHIADLKYDLARPTEMGIFQSMIEHLKENLNWIWNSLSIEDQHQFNQKYSKMIQLNSNPMPPRTAELIIELIENKSLILKKDLEDVKHDGKLYYFSYKNQESVDIYNVVINATGAKSHLNELDQDDQLIKNLENRQIVQAHPMGGIQIIPETNQVISPRFGTLTNMIAIGQMTNGVNKLRNGVKMIVEQVAHKVSQLYDALESNEQQQRSDNQ | not soluble |
| MAARNAGTARPGGPNRTCQFKLVLLGESAVGKSSLVLRFVKGQFHEYQESTIGAAFLTQTVCLDDATIKFEIWDTAGQERYHSLAPMYYRGAQAAIVVYDITNQESFQKAKNWVKELQRQASPNIVMALAGNKADVANKRTVEYEEANAYAEDNALLFMETSAKTSMNVNDIFMAIAKKLPIGPAQGEPTGTVDMNQPQQQQKGSCCK | not soluble |
| MAHHHHHHVDDDDKMYQSAIKVEPASPPYYSEKTQLYNKPHEEPSNSLMAIECRVCGDKASGFHYGVHACEGCKGFFRRTIRLKLIYDRCDLNCRIHKKSRNKCQYCRFQKCLAVGMSHNAIRFGRMPQAEKEKLLAEISSDIDQLNPESADLRALAKHLYDSYIKSFPLTKAKARAILTGKTTDKSPFVIYDMNSLMMGEDKIKFKHITPLQEQSKEVAIRIFQGCQFRSVEAVQEITEYAKSIPGFVNLDLNDQVTLLKYGVHEIIYTMLASLMNKDGVLISEGQGFMTREFLKSLRKPFGDFMEPKFEFAVKFNALELDDSDLAIFIAVIILSGDRPGLLNVKPIEDIQDNLLQALELQLKLNHPESSQLFAKLLQKMTDLRQIVTEHVQLLQVIKKTETDMSLHPLLQEIYKDLY | soluble |
| MRGSHHHHHHGMASMAVSESQLKKMVSKYKYRDLTVRETVNVITLYKDLKPVLDSYVFNDGSSRELMNLTGTIPVPYRGNTYNIPICLWLLDTYPYNPPICFVKPTSSMTIKTGKHVDANGKIYLPYLHEWKHPQSDLLGLIQVMIVVFGDEPPVFSRP | soluble |
| MSLEQLATTSQQEILAERPQLTTKIAVDLDVKGIKEKDEDAWQNVQIYLAQINNEYADGSERYQYLVQTTVDKALRAKGYYNSQYQFVKTVSAEQKPLLTLNVQLDNQKVTIDEVDIQLQGDANTDEDFIELKKTAPNQGDSLAHNAYDDFKSHIEGLAFKKGYFDGQWLYHRLEVYPQNHSVDWRLAYDSGKRYRYGEINFIDNQIKEEYLTNILKIAPQQYYYASDLSLMTADYLSSNWFSSVLVEPKLNEKAKLVDLKIFFQPKKKNKVEIGAGFATQLGARLQLNWKKPWLNERGHSIDSRTYLSLPEQTLELGYNVPLRQNPLHYYYQFSGSLEHQNQQDTKSIAGSFGLQRFWTHETGWSFSAGIKSRYDSFTQANDKHKTLLVYPTAALNRTQTDGNRFPLWGDSQRITVNWGAKIFGSDVSFYSWKASSTWVRTYLDRHRLFLRGEVGQVHTKDFHQIPPTLRYFAGGDMSIRGFAYKSISPKEPKSGKLIGGSHLVTTTAEYQYRIYPDWWAAIFYDTGLVSDKFDHRALHSGAGVGVRWISPIGAIKFDIATPVKSPNNKRGVQFYIGLGSEEGHHHHHH | not soluble |
| MSLNRNAILSKRQKQFIERVAWGASYKEVADFFHVSWSTVDNTLRNAKTKLGLSKVTELGAWWFCTNYGISFDLSPIARQCTAGIILFLFSLGEVTTITDASYTMQIVRRTRTEYRIRRHETSIYQPYIINEGHHHHHH | not soluble |
| MAHHHHHHMDQFIRSRTDWKERVVFRLVWITASRWFGISGLHSQQFYTGAGRDPNLGLARGAEDGEGGSPPRLSVRQDTRAGGCVRHYKVMQDTSTQRKAHESYDCPLGASSGLLECHGAFHKTRCVEARCSNRGGVQFGPTRDPAVGEARRPVRPSPEYCLIFGEIHHNADPGVVASRIDVKRETAEGQ | not soluble |
| SLAFVCLAIGCLYTFLISTTFGCTSSSDTEIKVNPPQDFEIVDPGYLGYMYLQWQPPLSLDHFKECTVEYELKYRNIGSETWKTIITKNLHYKDGFDLNKGIEAKIHTMLPWQCTNGSEVQSSWAETTYWIS | soluble |
| MAHHHHHHMTVEDQVDHLLAPQRDGQENIQQRQEFNGFVHWGLLHGAHMVLEENQDTKRAHEFVNRYMRDIDLFEKWLEHPKVRAHIQKKFGIDMSAKFDKLMALTMAMYTRSKIQVYEDDPAGALKSLTASMSFITEGADLKKERHRKALGAVLVARGMIHCKLKSFHRADDDLTRALAFVKANRSATLYQLRAEAREALGHIDEARADEERAAQIWEEAEVITPGMDGAPRKFVT | soluble |
| MGSDKIHHHHHHMIYISKEINTPLYDQIYRQIQGDIISGNLSPGTLLPGIRTLAKTLGVARNTVDKAYTQLAVEGYIIPRKGAGFAVESIRDSKKSAELQPLSSGVSAHPGHEKAEKKLPYDFQYGSFPEEYFPKTAWKKHMLEVLALPHLSAQMTQYQDKQGNLSLRCELQNYLYQTRGVVCTEDQILIGCGLHYSLDTLCKLFAGHKRIAMEEPGYNGAKEVFQNNGFTIRHIPSTPYGLDLSQLKTLAVPIVYVTPSHQFPYGTVLPISKRRELLEWAAEENAYIIEDDYDSEYRYDANPIPSLQSIDGHDRVIYIGTFSKSLSPSLRINYMVLPKSLLPAYHQMFSTYSSPVTWLTQEVLASFLRSGDYTRHVRRMCAAYRKRHDVFVQQLSQHFGPNIVLHGQGAGLHFLVEFAEEVEAEGLIQMAEEAGVRVYPVTPFWSASEACPPNLLFAGYSLLNERQIQEGLRLLKEVWAPVLEIK | not soluble |
| MGSDKIHHHHHHMFENEILFDNGQHKFMFLGWEEKEEEIVQTNQYLILDGNEGILLDPGGAHVFPRVMSNVAEVVDLSSIRHIFYTHQDPDVTSGILLWLSICENAKIYISSLWVRFLPHFGIYDQKRIVPISDKGTKIKLLSGNELEILPAHFLHSTGNFVLYDPVAKILFSGDIGAAVFEKGKRYRYVDDFERHLPLMEAFHKRYMSSNAACKKWVDMVSKKKIDMIAPQHGAVFRGESVKKFLEWFRNLKCGVDLIDNLYSL | not soluble |
| MGSDKIHHHHHHMTLADYVEIETTKDELIRACKQAADLIRTRVDYKYILVLLFLKKLSDEWKREYREALKTLMEKGVDEEEAKILAKDRSFHKFDYPEKYTWEELRKNVNELPVRLSEALKLLAEKNPELQGVVDRLDFLEFTRARDNFDILVQLFELFSGLNLGRASDSILGDAYEWLIGYFAPQKAKEGEVFTPSEVVELIVRIVDPKPMDSVYDPAAGYARMLIRAYDYVKEKYGEEEVRKLFLYGQEVNPTTYAIAKMNAIVHGIKDINLVVGDTLKNPRFKEGETFRKFDIVIANPPWNQDGYGEEELKKAEFYDERFRYGFTPKQSADWAWIQHMLASAKKKVGVVIDNGCLFRGGKEGAIRKAVVEDDLIECVILLPEKLFYNTGAPGAIIIFNKQKPESRKGKILFINASNEYEKHPEVRKLNRLGEKHIEKIVSAYREFKDGDGFCRVVDVEEVRKNDYNLNVTLYVFPQEEVEEIDVAKEWEELRGIEREIDEVERRIEEYLAELGFGRG | not soluble |
| MHRLRNLREDVSDGSLGHGGGGLMYDVVVVGAGPAGSMAAKTAAEQGLKVLLVEKRQEIGTPVRCAEGISRESIEKFFEVDKKWIAAEVTGAKIYAPNKTEIVMSEEMAGNEVGYVLERKIFDRHVARLAAKAGAEVYVKTAMVDFERKDGKVKVKLRRLGEDWEVETKILIGADGVESKIGRKAGIIKTLKLNEVESCAQYLMTGLDIDESYTYFYLGRELAPGGYAWIFPKGNGSANVGIGVLPKMAERTAKEYLDAFIEKEGIEGKIVEFVAGAVPVYGEIETAVADNIMLAGDAAYHADPITGGGIANALSAGYYAGKVAAEAVQKNDFSADFLRRYDELWKNDFGKKLRRNKKLQLKFIDMDDALLNKLAGAIAGKNLREMSVAAIVKELLKAHPKLLWDLKDLFLEHHHHHH | soluble |
| QVQLQESGGGLVQAGGSLRLSCAASGSIFSINSMDWDRQAPGKQRELVATITSGGSTNYADSVKGRFTISRDNAKNTVYLQMNSLKPEDTAVYYCNANVKTWAGMTRDYWGQGTQVTVSSHHHHHH | soluble |

Reference: the DeepSol protein solubility set
